{"source": "patent US6319890A", "about": "“Inhibition of binding of complement Factor H” (priority 1996, dated 2001)", "key": {"[1]": {"target": "T1, binding of peptide A to HIV-derived target peptides #SA2, #12, #18 (Human immunodeficiency virus type 1 group M subtype B, UniProt P03377)", "T1 construct": "His Glu Asp Ile Ile Ser Leu Trp Asp Gln Ser Leu Lys Pro Cys, Env; 105-119; Ile Asn Asn Thr Tyr THr Ser, Env; 621-645; Leu Asp Lys Trp Ala Ser, Env; 650-673; made in house; host or cells: chemical synthesis (synthetic peptides)", "T1 sequence (P03377 621-645, other chains not shown)": "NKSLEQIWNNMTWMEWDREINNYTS", "assay": "Competition of the binding of biotin-labelled peptide A to HIV-derived peptides", "from_the_text": "This interaction was competed by peptide A itself, by the envelope peptides #SA2 Sequence I.D. #20, #12 Sequence I.D. #22 and #18 Sequence I.D. #21 but not by peptide #53 Sequence I.D. […]. Therefore, the three HIV-derived peptides seem to share functional homology with respect to the interaction with CFH since they all bind to the same region on SEQ. ID NO: 1."}, "CFH": {"target": "CFH (Homo sapiens, UniProt P08603)", "sequence (P08603 19-1231)": "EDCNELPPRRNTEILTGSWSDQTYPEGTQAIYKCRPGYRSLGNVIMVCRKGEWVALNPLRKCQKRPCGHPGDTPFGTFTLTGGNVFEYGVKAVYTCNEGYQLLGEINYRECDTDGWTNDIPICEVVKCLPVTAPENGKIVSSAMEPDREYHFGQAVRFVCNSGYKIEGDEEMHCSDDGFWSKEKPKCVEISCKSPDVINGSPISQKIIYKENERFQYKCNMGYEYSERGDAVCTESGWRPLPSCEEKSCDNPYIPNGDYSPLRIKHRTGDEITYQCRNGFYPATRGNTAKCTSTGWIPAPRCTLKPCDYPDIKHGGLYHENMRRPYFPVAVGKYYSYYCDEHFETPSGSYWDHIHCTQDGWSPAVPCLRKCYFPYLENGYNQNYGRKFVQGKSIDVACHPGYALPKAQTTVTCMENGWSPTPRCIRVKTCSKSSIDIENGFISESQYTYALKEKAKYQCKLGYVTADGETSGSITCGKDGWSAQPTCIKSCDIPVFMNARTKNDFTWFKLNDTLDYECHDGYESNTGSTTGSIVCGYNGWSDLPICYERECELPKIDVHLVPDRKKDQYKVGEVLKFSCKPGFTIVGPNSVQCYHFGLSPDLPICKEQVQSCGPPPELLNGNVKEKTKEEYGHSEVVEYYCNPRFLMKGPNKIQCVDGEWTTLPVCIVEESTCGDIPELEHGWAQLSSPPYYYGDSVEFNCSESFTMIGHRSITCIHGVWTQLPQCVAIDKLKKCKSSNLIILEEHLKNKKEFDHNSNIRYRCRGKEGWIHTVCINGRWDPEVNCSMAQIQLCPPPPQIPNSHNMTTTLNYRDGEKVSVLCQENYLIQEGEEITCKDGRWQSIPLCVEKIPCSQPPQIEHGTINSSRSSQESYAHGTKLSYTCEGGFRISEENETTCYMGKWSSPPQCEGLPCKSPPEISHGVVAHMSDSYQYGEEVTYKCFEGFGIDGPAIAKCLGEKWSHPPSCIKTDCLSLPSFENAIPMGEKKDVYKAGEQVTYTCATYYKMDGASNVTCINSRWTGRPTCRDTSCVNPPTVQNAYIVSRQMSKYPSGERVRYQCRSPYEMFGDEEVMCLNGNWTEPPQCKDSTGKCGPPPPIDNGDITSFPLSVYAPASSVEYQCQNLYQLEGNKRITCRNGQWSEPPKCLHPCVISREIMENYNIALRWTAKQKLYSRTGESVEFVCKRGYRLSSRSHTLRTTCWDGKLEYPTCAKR", "details": "described in earlier publications of Pinter et al.; cited from earlier work"}, "[2]": {"target": "T2, binding of CFH to the HIV envelope peptides #SA2 (gp120), #18 and #12 (gp41) (Human immunodeficiency virus type 1 group M subtype B, UniProt P03377)", "T2 construct": "His Glu Asp Ile Ile Ser Leu Trp Asp Gln Ser Leu Lys Pro Cys, Env; 105-119; Ile Asn Asn Thr Tyr THr Ser, Env; 621-645; Leu Asp Lys Trp Ala Ser, Env; 650-673; made in house; host or cells: Env peptides: chemical synthesis; CFH: purified from normal human plasma (or fresh plasma used as the CFH source)", "details": "previous work, Pinter et al., AIDS Research & Human Retroviruses 11:577; cited from earlier work"}, "[3]": {"target": "T2, binding of CFH to the HIV envelope peptides #SA2 (gp120), #18 and #12 (gp41)", "details": "competitor added simultaneously with CFH; ELISA, solid-phase peptides #SA2, #18, #12"}, "[4]": {"target": "T2, binding of CFH to the HIV envelope peptides #SA2 (gp120), #18 and #12 (gp41)", "details": "target peptides preincubated with competitor, washed, before CFH", "description": "Synthetic peptides and recombinant proteins were dissolved in Carbonate-bicarbonate buffer, 50 mM, pH 9.2 at 50 μg/ml (micrograms per milliliter) and 10 μg/ml, respectively, distributed in 100 μl aliquots into flat-bottomed 96-well ELISA plates (Greiner, Germany) and left at 37° C. for 3 hours. The plates were then washed three times in phosphate-buffered saline (PBS) and the wells were overcoated with a 3% (w/v) solution of bovine serum albumin (BSA) in PBS. The CFH source (either from fresh plasma or from plasma subjected to subsequent purification steps), was diluted to the appropriate concentration (1 mg/ml) in PBS-BT (=PBS containing 1% BSA and 1% Tween 20), pH 7.0 and exposed to the solid phase for one hour at 37° C. After washing in PBS+1% Tween 20 (=PBS-T), bound CFH was detected by the use of specific, biotin-labelled MAb 5H5, Pinter et al., AIDS Research & Human Retroviruses 11: 971, and peroxidase-labelled streptavidin (Sigma, Italy). The reaction was developed with o-phenylene-diamine/H2 O2 for fifteen minutes and then stopped by the addition of 4N H2 SO4. Absorbance was detected at […] with a MT450 microplate reader (BioRad).\nAlong with the above-described assay, a preincubation assay was also conducted with peptides. […] The solid phases were washed in PBS-T and CFH was detected with the biotin-labelled MAb 5H5 as previously described."}, "[5]": {"target": "T3, gp41-derived peptide #18 (Env. 621-645) (Human Immunodeficiency Virus)", "T3 peptide": "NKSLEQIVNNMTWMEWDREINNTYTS", "assay": "competition ELISA against CFH binding to the immobilised envelope peptide"}, "[6]": {"target": "T4, gp120-derived peptide #SA2 (Env. 105-119) (Human Immunodeficiency Virus)", "T4 peptide": "HEDIISLWDQSLKPC", "assay": "competition ELISA against CFH binding to the immobilised envelope peptide"}, "[7]": {"target": "T5, gp41-derived peptide #12 (Env. 650-673) (Human Immunodeficiency Virus)", "T5 peptide": "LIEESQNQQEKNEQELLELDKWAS", "assay": "competition ELISA against CFH binding to the immobilised envelope peptide"}, "[8]": {"target": "T3, gp41-derived peptide #18 (Env. 621-645)", "assay": "competition ELISA against CFH; inhibition due to interaction of peptide A with the solid phase (preincubation gave the same effect)"}, "[9]": {"target": "T4, gp120-derived peptide #SA2 (Env. …)", "assay": "competition ELISA against CFH; inhibition due to interaction of peptide A with the solid phase (preincubation gave the same effect)"}, "[10]": {"target": "T5, gp41-derived peptide #12 (Env. 650-673)", "assay": "competition ELISA against CFH; inhibition due to interaction of peptide A with the solid phase (preincubation gave the same effect)"}}, "data": [{"molecule": "Asn Lys Ser Leu Glu Gln Ile Val Asn Asn Met Thr Trp Met Glu Trp Asp Arg Glu Ile Asn Asn Thr Tyr THr Ser (NKSLEQIVNNMTWMEWDREINNTYTS) [#18, gp41-derived HIV envelope peptide, Env; 621-645]", "values": [{"measurement": "competition of the binding of biotin-labelled peptide A to HIV-derived peptides", "setting": "[1]", "result": "competed"}, {"measurement": "CFH binding to the HIV envelope peptide", "setting": "CFH", "result": "targets of CFH binding"}]}, {"molecule": "Heparin", "values": [{"measurement": "inhibition of the binding of CFH to HIV and to the target peptides", "setting": "[2]", "result": "inhibited"}, {"measurement": "competition with the binding of CFH to the HIV envelope peptides", "setting": "[3]", "result": "competed"}, {"measurement": "competition with the binding of CFH to the HIV envelope peptides after preincubation", "setting": "[4]", "result": "inactive"}]}, {"molecule": "KEFDHNSNIRYRCR", "note": "[peptide b11]", "values": [{"measurement": "binding result", "setting": "[5]", "result": "binds"}, {"measurement": "binding result", "setting": "[6]", "result": "binds"}, {"measurement": "binding result", "setting": "[7]", "result": "binds"}]}, {"molecule": "IRYRCRGKEGWIHTVCINGRWDPEVNCS", "note": "[Peptide B]", "values": [{"measurement": "binding result", "setting": "[5]", "result": "no binding (tested: 0 to 50 µg/ml)"}, {"measurement": "binding result", "setting": "[6]", "result": "no binding (tested: 0 to 50 µg/ml)"}, {"measurement": "binding result", "setting": "[7]", "result": "no binding (tested: 0 to 50 µg/ml)"}]}, {"molecule": "AIDKLKKCKSSNLIILEEHLKNKKEFDHNS", "note": "[Peptide A]", "values": [{"measurement": "binding result", "setting": "[8]", "result": "binds"}, {"measurement": "binding result", "setting": "[9]", "result": "binds"}, {"measurement": "binding result", "setting": "[10]", "result": "binds"}]}]}
